Measured values published in patent US20230173042A1, “METHODS OF TREATMENT WITH ASPARAGINASE” (JAZZ PHARMACEUTICALS IRELAND LTD., priority 2017, published 2023).

B1: Oncaspar: E. coli L-asparaginase modified at multiple lysine residues using 5 kDa mPEG-succinimidyl succinate (conjugate, UniProt P00805 23-348, looked up)
L-asparaginase 2: LPNITILATGGTIAGGGDSATKSNYTVGKVGVENLVNAVPQLKDIANVKGEQVVNIGSQDMNDNVWLTLAKKINTDCDKTDGFVITHGTDTMEETAYFLDLTVKCDKPVVMVGAMRPSTSMSADGPFNLYNAVVTAADKASANRGVLVVMNDTVLDGRDVTKTNTTDVATFKSVNYGPLGYIHNGKIDYQRTPARKHTSDTPFDVSKLNELPKVGIVYNYANASDLPAKALVDAGYDGIVSAGVGNGNLYKSVFDTLATAAKTGTAVVRSSRVPTGATTQDAEVDDAKYGFVASGTLNPQKARVLLQLALTQTKDPQQIQQIFNQY
modifications: 5 kDa mPEG-succinimidyl succinate on lysines
notes: E. coli L-asparaginase modified at multiple lysine residues using 5 kDa mPEG-succinimidyl succinate
B2: Pegcrisantaspase: mPEG-r-crisantaspase conjugate: Erwinia chrysanthemi L-asparaginase conjugated to polyethylene glycol, prepared as set forth in U.S. Pat. No. 9,920,311 (conjugate, UniProt P06608 22-348, looked up)
L-asparaginase: ADKLPNIVILATGGTIAGSAATGTQTTGYKAGALGVDTLINAVPEVKKLANVKGEQFSNMASENMTGDVVLKLSQRVNELLARDDVDGVVITHGTDTVEESAYFLHLTVKSDKPVVFVAAMRPATAISADGPMNLLEAVRVAGDKQSRGRGVMVVLNDRIGSARYITKTNASTLDTFKANEEGYLGVIIGNRIYYQNRIDKLHTTRSVFDVRGLTSLPKVDILYGYQDDPEYLYDAAIQHGVKGIVYAGMGAGSVSVRGIAGMRKAMEKGVVVIRSTRTGNGIVPPDEELPGLVSDSLNPAHARILLMLALTRTSDPKVIQEYFHTY
modifications: mPEG conjugate
B3: Erwinia L-asparaginase: L-asparaginase protein from Erwinia chrysanthemi, named crisantaspase, marketed as Erwinase (protein, UniProt P06608 22-348, looked up)
L-asparaginase: B2 L-asparaginase

Columns and labels:
[1] = children who received the drug; cited from earlier work
[2] = PEGylated enzyme relative to unmodified enzyme; cited from earlier work
HT = experiment: Oncolines cell proliferation assay (ATP luminescence); format: cell-based; settings: diffuse mixed lymphoma, B lymphoblast
Description: (§1) Cell preparation. All cell lines have been licensed from the American Type Culture Collection (ATCC) Manassas, Va. (US). Master and Working Cell banks (MCB and WCB) were prepared by subculturing in ATCC-recommended media and freezing according to ATCC recommended protocols (www.atcc.org).
(§2) Compound preparation. Test compounds were prepared as stock solutions in DMSO or aqueous buffers as appropriate and serially diluted to obtain a dilution series.
(§3) Cell proliferation assay. Cell proliferation was assessed using a commercially available luminescence assay using ATP as the endpoint.
(§4) Controls. t=0 signal. On a parallel plate, 45 μl cells were dispensed and incubated in a humidified atmosphere of 5% CO2 at 37° C. After 24 hours 5 μl DMSO-containing Hepes buffer and 25 μl ATPlite 1Step™ solution were mixed, and luminescence measured after 10 minute incubation (=luminescencet=0).
(§5) Reference compound. The IC50 of the reference compound doxorubicin is measured on a separate plate. The IC50 is trended. If the IC50 is out of specification (0.32-3.16 times deviating from historic average) the assay is invalidated.
(§6) Cell growth control. The cellular doubling times of all cell lines are calculated from the t=0 hours and t=end growth signals of the untreated cells. If the doubling time is out of specification (0.5-2.0 times deviating from historic average) the assay is invalidated.
(§7) Maximum signals. For each cell line, the maximum luminescence was recorded after incubation until t=end without compound in the presence of 0.4% DMSO (=luminescenceuntreated,t=end).
(§8) IC50 were calculated by non-linear regression using IDBS XLfit. The percentage growth after incubation until t=end (%-growth) was calculated as follows: 100%×(luminescencet=end/luminescenceuntreated,t=end). This was fitted to the ^10log compound concentration (conc) by a 4-parameter logistics curve: %-growth=bottom+(top−bottom)/(1+10^(logIC50-conc)*hill)) where hill is the Hill-coefficient, and bottom and top the asymptotic minimum and maximum cell growth that the compound allows in that assay.
(§9) NCI60 parameters. The LD50, the concentration at which 50% of cells die, is the concentration where luminescencet=end=½×luminescencet=0h. […] This is concentration associated with the signal: ((luminescenceuntreated,t=end−luminescencet=0)/2)+luminescencet=0.
(§10) Curve fitting. […] The hill was fixed on −6 when the software calculated a lower value. […] Incidentally, when technical failures were likely, concentration points were knocked out.
(§11) The special volcano plot of FIG. 9 relates compound sensitivity (as measured by ^10logIC50) to the presence of cancer hotspot mutations. […] The hotspot mutations were derived from statistical analyses of the recurrence patterns of mutations and copy number alterations in patients through separate studies. Axes and statistical analyses are identical to the volcano plot of FIG. 8. The cutoff p-level for significance is 0.32. […] Effect20 For determination of the effect of the compound on the activity of other anti-cancer agents in SynergyScreen™ experiments, a low, fixed concentration is used, corresponding to the concentration at which cell growth is inhibited by 20%.

HL-60 = experiment: as above; format: cell-based; settings: HL-60, acute promyelocytic leukemia
Description: as §1, §2, §3, §4, §5, §6, §7, §8, §9, §10, §11

MV-4-11 = experiment: as above; format: cell-based; settings: MV-4-11, biphenotypic B myelomonocytic leukemia
Description: as §1, §2, §3, §4, §5, §6, §7, §8, §9, §10, §11

HT-1080 = experiment: as above; format: cell-based; settings: HT-1080, fibrosarcoma
Description: as §1, §2, §3, §4, §5, §6, §7, §8, §9, §10, §11

KG-1 = experiment: as above; format: cell-based; settings: KG-1, acute myelogenous leukemia (AML)
Description: as §1, §2, §3, §4, §5, §6, §7, §8, §9, §10, §11

MOLT-4 = experiment: as above; format: cell-based; settings: MOLT-4, acute lymphoblastic leukemia (ALL)
Description: as §1, §2, §3, §4, §5, §6, §7, §8, §9, §10, §11

U-87-MG = experiment: as above; format: cell-based; settings: glioblastoma, brain
Description: as §1, §2, §3, §4, §5, §6, §7, §8, §9, §10, §11

DB = experiment: as above; format: cell-based; settings: large cell lymphoma, B lymphoblast
Description: as §1, §2, §3, §4, §5, §6, §7, §8, §9, §10, §11

RL = experiment: as above; format: cell-based; settings: non-Hodgkin's lymphoma, B lymphoblast
Description: as §1, §2, §3, §4, §5, §6, §7, §8, §9, §10, §11

THP-1 = experiment: as above; format: cell-based; settings: THP-1, acute monocytic leukemia
Description: as §1, §2, §3, §4, §5, §6, §7, §8, §9, §10, §11

[3] = In vivo test of mPEG-r-crisantaspase with cytarabine and daunorubicin (tolerability, body weight); settings: mice; PegC 5 & 50 IU/kg as single agent and with cytarabine 50 mg/kg and daunorubicin 1 mg/kg
HL-60 cell line = experiment: Combination (synergy) cell proliferation assay with pegcrisantaspase; format: cell-based
Description: Plate preparation. The stocks of the mixtures and single agents were diluted in DMSO or 0.9% sodium chloride to generate a 7-points dose-response series. After further 31.6 times dilution in 20 mM sterile Hepes buffer pH 7.4 (reference compounds) or medium (pegcrisantaspase), 5 μl of pegcrisantaspase solution, and 5 μl of reference compound was added to 40 μl pre-plated cells in duplicate in a 384-well assay plate. The final DMSO concentration during incubation was 0.4% in all wells.
Cell proliferation assay. A cell assay stock was thawed and diluted in appropriate medium and dispensed in a 384-well plate, depending on the cell line used, at a concentration of 800-3200 cells per well in […]: i.e., DB: 800 cells per well; RL: 1000 cells per well; MV-4-11: 1600 cells per well; KG-1, HL-60 and HT 3200 cells per well. For each used cell line the cell density was optimized previously. The margins of the plate were filled with phosphate-buffered saline. Plated cells were incubated in a humidified atmosphere of 5% CO2 at 37° C. After 24 hours, 5 μl of pegcrisantaspase solution, and 5 μl of reference compound was added, and plates were further incubated for another 72 hours. After 72 hours, plates were cooled in 30 minutes to room temperature and 25 μl of ATPlite 1Step™ (PerkinElmer) solution was added to each well, and subsequently shaken for 2 minutes. After 5 minutes of incubation in the dark at room temperature, the luminescence was recorded on an Envision multimode reader (PerkinElmer).
Controls: t=0 signal. On a parallel plate, 40 μl cells were dispensed in quadruplicate and incubated in a humidified atmosphere of 5% CO2 at 37° C. After 24 hours, plates were cooled to room temperature in 30 minutes. 5 μl DMSO-containing Hepes buffer, 5 μl 0.9% sodium chloride-containing medium and 25 μl ATPlite 1Step™ solution were added and subsequently mixed for 2 minutes. Luminescence was measured after 10 minute incubation (=luminescencet=0) in the dark.
as §6
Maximum signals. On each 384-well plate, the maximum luminescence was recorded after incubation for 72 hours without compound in the presence of 0.4% DMSO. All equivalent wells (usually 14) were averaged. This average is defined as: luminescenceuntreated,t=72h. Dose response curves. Accurate single agent IC50s are needed for combination analysis. For each single agent its dose-response signal was fitted by a 4-parameter logistics curve using XL-fit 5 (IDBS software):
luminescence=bottom+(top-bottom)/(1+10^(logIC50−log[cpd])−hill))
[cpd] is the compound concentration tested. hill is the Hill-coefficient. Bottom and top are the asymptotic minimum and maximum of the curve. Combination Index (CI) determination. The CI is one of the most widely used quantitative indications of synergy. The CI evaluates the concentrations needed to achieve a fixed-effect. A CI of below 1 indicates synergy.
CI is defined for a certain percentage cell viability (V), which is the signal related to a non-exposed control: V=100%×luminescencetreated,t=72h/luminescenceuntreated,t=72h. The concentrations of the two compounds cpd1 and cpd2 needed to reach a certain percentage cell viability V in combination are then compared to the concentrations needed as single agents:
IC50,cpd1 would signify the IC50 of cpd1 alone. The CI is labelled by %-effect, to follow conventions, so CI75 signifies the CI at 25% viability Curve shift analysis. This analysis provides a visual confirmation of synergy^1. The concentrations of the mixtures of compounds 1 and 2 (cpd1 and cpd2), and the single agents, were expressed in terms of IC50 equivalents (in ‘units’ of IC50):
The dose-response signal was fitted by a 4-parameter logistics curve using XL-fit 5 (IDBS software)

[4] = in vivo; cited from earlier work
[5] = pegcrisantaspase with ABT-747, average Combination Index of the mixtures at ED50, HL-60

| Molecule | children who had an allergic reaction [1] | in vitro activity compared to the unmodified L-asparaginase [2] | Effect20 (concentration at which cell growth is inhibited by 20%) (HT) | Effect20 (concentration at which cell growth is inhibited by 20%) (HL-60) | Effect20 (concentration at which cell growth is inhibited by 20%) (MV-4-11) | Effect20 (concentration at which cell growth is inhibited by 20%) (HT-1080) | Effect20 (concentration at which cell growth is inhibited by 20%) (KG-1) | Effect20 (concentration at which cell growth is inhibited by 20%) (MOLT-4) | Effect20 (concentration at which cell growth is inhibited by 20%) (U-87-MG) | Effect20 (concentration at which cell growth is inhibited by 20%) (DB) | Effect20 (concentration at which cell growth is inhibited by 20%) (RL) | Effect20 (concentration at which cell growth is inhibited by 20%) (THP-1) | tolerability [3] | Curve shift (HL-60 cell line; pegcrisantaspase with ABT-747, HL-60, leftward shift indicates synergy) | Average CI value 1:1, 1:2 and 2:1 (HL-60 cell line; [5]) | Average CI value 1:1, 1:5 and 5:1 (HL-60 cell line; [5]) | Average CI value 1:1, 1:10 and 10:1 (HL-60 cell line; [5]) | IC50 (IU/mL) (HL-60 cell line; single agent, HL-60, 72 hours) | maximal effect (HL-60 cell line; single agents, dose-response curves of FIG. 3, HL-60) | patients antibody-positive [4] |
| --- | --- | --- | --- | --- | --- | --- | --- | --- | --- | --- | --- | --- | --- | --- | --- | --- | --- | --- | --- | --- |
| B1 | 30-41% | approximately 50% | 0.28 IU/mL | 0.0003 IU/mL | 0.26 IU/mL | 0.00025 IU/mL | 0.0001 IU/mL | 0.00019 IU/mL | 0.4 IU/mL | 0.47 IU/mL | 0.37 IU/mL | 0.31 IU/mL | – | – | – | – | – | – | – | – |
| B2 | – | – | 0.033 IU/mL | 0.00028 IU/mL | 0.0088 IU/mL | 0.013 IU/mL | 0.00018 IU/mL | 0.00019 IU/mL | 0.057 IU/mL | 0.059 IU/mL | 0.037 IU/mL | 0.012 IU/mL | well tolerated | yes | 0.26 | 0.29 | 0.33 | 0.070 IU/mL | 88% | – |
| B3 | – | – | – | – | – | – | – | – | – | – | – | – | – | – | – | – | – | – | – | 30-50% |
